The values that follow come from US7247438.

This test addresses T1, purified, recombinant Yama/caspase-3, P42574.
T1 chain: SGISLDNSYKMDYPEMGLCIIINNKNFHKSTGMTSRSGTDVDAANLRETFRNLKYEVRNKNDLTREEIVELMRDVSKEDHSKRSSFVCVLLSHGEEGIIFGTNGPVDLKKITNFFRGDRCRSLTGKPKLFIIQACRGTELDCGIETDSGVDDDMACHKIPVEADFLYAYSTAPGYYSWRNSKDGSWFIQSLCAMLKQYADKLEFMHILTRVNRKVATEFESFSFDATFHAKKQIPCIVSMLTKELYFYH
The experiment in a line: recombinant enzyme labelled with biotinylated inhibitor, blot. As to conditions: remark: other sources report otherwise.

With YVAD (modifications not checked) [biotin-YVADamk], the fold more enzyme needed for detection was 100 times.
